# From the DeepSol protein solubility set
# Assay: soluble on expression in E. coli; label from the status in PepcDB or PDB records
row,Sequence,soluble on expression in E. coli
1,MKFETLDFNDEKDIKNFKTDCGDLQDCFTALPCRPGSNNQLDKRLRSIEWVCKAIVFLTEDFSNCFDKLHEKNAECVQNWNPLPNEIYLEDDKMKVEKMKENACDTYFGKDDCVKKEIIERCGQEEWNTFRKVPN,not soluble
2,MHTAEFLETEPTEISSVLAGGYNHPLLRQWQSERQLTKNMLIFPLFISDNPDDFTEIDSLPNINRIGVNRLKDYLKPLVAKGLRSVILFGVPLIPGTKDPVGTAADDPAGPVIQGIKFIREYFPELYIICDVCLCEYTSHGHCGVLYDDGTINRERSVSRLAAVAVNYAKAGAHCVAPSDMIDGRIRDIKRGLINANLAHKTFVLSYAAKFSGNLYGPFRDAACSAPSNGDRKCYQLPPAGRGLARRALERDMSEGADGIIVKPSTFYLDIMRDASEICKDLPICAYHVSGEYAMLHAAAEKGVVDLKTIAFESHQGFLRAGARLIITYLAPEFLDWLDEEN,soluble
3,MKPKHLLCLSTVVAGLALFSTMTHSVLADDASNPDTILMNNNQANLQRDALVQKLDEGHQQLEAIKHEAKGTDIEATVNKAIDAVDHMKSSIRFNTETIYDFSSIGARVEALSDAIKAIVFSTTQLTHKVEKAHTDTGFAITKLVIRIIDPFASVDAIKAQVQEIKALEEKVINYPDLQPTDRATIYTKAKLNKAIWNTRLERDKKVLGIKSFDVYNRLNKAITHAVGVQLNPTTTVQQVDDEVIAVQNALETALKSLEHHHHHH,soluble
4,MGSDKIHHHHHHMLKFGTAGIPINAKNTESALEYLKEIKLDAMELEFVRGVNLKAEKAESLAKNLKITLSAHAPYYINLNAKEPEKIESSIKRIVDSAKIISIFNKKNSENKNVVFHSGFYLKQDKDLVYEKIKVNIQKILKIMDENKINAILRPETTGKISQFGSIDELIQLSTEIDIMPCIDFSHVYARSLGKINDYDSFSNILSKLENNLGKKGIKDMHIHISGIDFGNGGEKKHFPILNSEFNYMAVLKALKDFECSGTVICESPKLEYDAVILKKNYEEL,not soluble
5,MALMYPFHVAQPPLNWSEHLWVSEVSPAKESFITTICEHRQAQWDNQDLLRHLQDSVAILTREDQRHVNAVHAAANMPANP,not soluble
6,MSERESLSGADNAWRRMGTPTNLMTITGVMMFDERMTYEDLCNRLEERLLRFERFQQRIGGRKRRFRQPYWETVDGFDVEPHVYHISLPEPQDKATFEAFVGKLMSRPLDESRPLWEAYLVDGAGPGEGNAVAFRLNHSIGDGFALLYVLLGLVDNPGDIELPSGMVSAPDDIGDDADSGADGGNGSDESDVASGDGQPADTDSKSDGERGSSGLPSPVSAAGTAATGVATGYDLLFGDDDPDTSLRGELGQTKRAAWTDEIPLEQVRTVCEAQPHRATINDVLLAALAGALRRLLEDRGEPVDGMELHGTVPVNLKPMAERDGSLGNNFGLVFLPLPVGTEPLQERISIIHEWMDGKRAGIQAFLMYALLTIGGHVPEYVQKKVMTLFEDRATGVVTNVPGPTDAIQFAGREITDMIFWVPQANEQGIGISIFSYDGNVRVGVAADENLLGAPGELAAAFEAEMEALLEDAELEHHHHHH,soluble
7,MSLSTVISSEASNYDHWAWLYNHTLGPRYSEQKIAPLARAVLSQLPNGASVLDLCCGTGHLAKLMADRGYAVTGLDGSQDMINHARGNAPDLEFVLGDARDFTFEQPFDGVVCTSASLNHIQNTEDLRKVFSSVRRCLKDEGIFAFDINHPGQMARYWRDVPAEGELTDDYAWLITPRYNSQSNEGSFTVEIHTRPKAARFSLAEAAYRLAARLLSNRRRLALIARFGIPGNNWERHSVTNPVWGHDLDTVTELLRASGFSVKMRSTDGGPVTDERAVYFLCTKIAGDRAGQEVTKEAVEEGHHHHHH,soluble
8,GMDETPIFKIKKLTIAENDRSEYIRYAEKNMHDSIPAEEGTLLIGSGHDDAHGEDNYEIEVFRNKGAEDLHIAGSHADDFVETVNKIATKQKVIDLHPEVITTKAQRALNSYADNFVMRLIKVEVKDADAEKFSHAVKKEMTTSMASEPGMEIMMSGTNIDNPNEWYFIEVYANDEAYDIHVKTPHYKEYIEETDGMVKSRDVKTLVRDTLATQGAIVLD,soluble
9,MAHHHHHHMSISGAAAPAPLRGRESGGNVPGSMGALIKKLHPLYTQRVRPLEEMYSFDVFRPSWYEETILNERPFITLFGPWSAGKTTFINYLLQSNDLWTGPQPTTAEFTVVMYGKEPGPVAGQALANSKHLPFKGLLDFGESFIRNLKGFQAPHALLERVTLIDTPGVLESAKDIHQRKYDYVNVCRWFAERSDLIFVFFDPSKLDAGGELRQLFQTSFKGFENRLRLVLNKADTISTQELMRVYGSLFWNLSNFINTTEPPRVYVGSFWDKPYSPNSFSRLFAEEKLDLLHELLEVIPQQARDKKVASLIRRAKEVLVHAVILGGIRADLPLLFGKSKAKKKAAEQLPRRYELIGARYKMNHRDFPPVQAYRSFLERFDVAKFPPLQKAEKAGLIRGIQELIDTILPSMLRPVCNTRAANPFEEDKQTGLLSMYRDHVLLQRDGRPGMQGGTDKVASTMGQGVPDSATTGPSSSVAAAPASGPSSLLGPGPAVTALSASPPFIELPSRAMAASSTAVAASSPPPPPPSSAAATSSPADMQAMMAIMQQMVAYQQQQQQQQDRQSSSAPATVNSHGTLSSSSSETSGCLAESSVPVTPQESNLNSEPQPPTVVPQLGLPNSCATQISAWAGGDESKSQH,soluble
10,MGSSHHHHHHSSGLVPRGSHMDKGKSVKSTEKSVGMPPKTPKTDNNAHVDNEFLILQVNDAVFPIGSYTHSFGLETYIQQKKVTNKESALEYLKANLSSQFLYTEMLSLKLTYESALQQDLKKILGVEEVIMLSTSPMELRLANQKLGNRFIKTLQAMNELDMGEFFNAYAQKTKDPTHATSYGVFAASLGIELKKALRHYLYAQTSNMVINCVKSVPLSQNDGQKILLSLQSPFNQLIEKTLELDESHLCTASVQNDIKAMQHESLYSRLYMS,soluble
11,MPLTFAHSFADAVPSLSVPWRAEQWPDPRIIVFNHELGQELGIDEASLLSNITQQGHAQAYSGHQFGQFNPLLGDGRALVLGDCAQTNAPHGQFEISLKGSGPTPFARRGDGRATLGPMLREYLISEALHGLGIPTTRSLAVITTGTDVQRERLLPGAVVVRVAQNHLRVGSVQCAAMRDDDSLAALVRYALSSHEDGVSDAEAAGLLLRRVSTSQAKLVAQWMRFGFVHGVMNTDNVTLSGQTIDFGPCAFIDSFHPQAVFSSIDSHGRYSFGRQPSIMGWNIARLAEALLPLMSIDEARNIVHEFPDMYRRSWLDEMADAVGISPDDDHAAGVLDDLVALLDVHRPDYAQFMRSLSDGTTVSLFPWAQQWEAEVSSLRVAAPRNPVYVPRNYLVEDALEHAMNADMSVFSLLVEAGKNPYLREKRFEKLENPAPETWQDYVTYCGT,not soluble
12,TGPQGPPGPAGPKGAKGETGPQGPPGPAGPKGAKGDSGVPLSYEFTQKVESSNGTAVFGLLSNGFVEVRITGSYSSDVFNIPYNYRPLKAGTQMALFSTSGVGVAKVGEDKITIQGYSRNAQCSGTVLYPHREF,not soluble
13,MSLFFIYDFAMIMQFNSRYSDLNAKLYHQQAPVPLKGAKAGHFNEAIADELQWTSQEKQSWVDICSGQKTFDAFKPLAMVYAGHQFGQWAGQLGDGRGLLIGQVLHRSGQTIDLHLKGAGLTPYSRMGDGRAVLRSVIREYLAGHALNSLRVASSNAIGFTTSEQGVQRETLEQGAMLLRTSDCHIRLGHFEWINQYAPELLAEFTQKCIEWHYPEALQAEHPILAFAEGVIKNTAKMIADWQLVGFAHGVMNTDNLNITGSTLDFGPYGFMERFRPNWINNHSDHQGRYAYQNQPSIAHWNLWIWLNNLIPLSKPEDKETFKKQLADCLEHFEPTFLTAYTEGLCKKLGLPDFHKDSFDCGMAFLKVLQSEQLDYTQSFLRLQNHDYKALRDDCLDTRQFDDFLNLYHQIREHQDITALDQTMCDVNPVYILRNHMAQQAIEQAERGDFSEVERLFTLLAKPFTRQPALEKEQDLAPLPSDVPEIMVSCSSEGHHHHHH,not soluble
14,HGSMEVPVSRAYGCFQEGPEAPISSACREAKRVGGAQAMYDWNAINQTPAGDNHQALVPDGALCGGGKAEFKGFNLARSDWRATSIVPDAKGDYEFVFQATAPHATKYFRLYVTRDGWNPSTPLKWSDLTLFGAYNGNPPLDVGNRYRMTMRLPAGKTGRHIIYSVWKRSDSEEAFYACSDVSFGH,not soluble
15,MNANYVSKKPYIVTIACTKGGSAKSTNAANIGAFCADHGLRTLLIDTDTQPTLSSYYSLAKTAPGGIYEFLLQRDVEPSHIVSQTSIKNLDLIQSNDPSNNVSHMLRNAPDGSIRFSHLIKSINNYDVIVIDTRGTRDITVDMSVLAADILFCPILPQILSAKEFIRGTIGMYQDLQTFESFGFKLPPLKAIANGVDNTNDVKFVMQKLHTLFANTFDESKTLLDFSIPYHVAYREAVTYALPVYRHSAVEYPVMQQLCCLLLPQFKENFEKPMQRGLEHHHHHH,soluble
16,MSSSGPTRSISTGTKPPTESLYKREVAQMMQQHQQQQRINNNKGYRPQGASPPKELKRRFYDDGSVTPSSRQSRNERSMDGRPSPEHGAIIGENRKSSPPAEEKYSNSGTRCKLPIPDMFRFYDKEMANEKLESLGLADEDDKKTLTKMRRHSIWMDNQLLNQLQASESNKQYLSAKKQMRDILITRIDHIDNAHKNVNSLFVHDFVHDYIILFKNKVSKSEKFLLCLKKINN,not soluble
17,MLMRPLDLTEKRGKKVTIYFEGKELEAYEGEKLPVALLANEIYWLTTSNEGRKRGAFTFGPVPMTVNGVKGLEARRIKVKDGMKIERQGYYDFHEEPVVEPGEIERVVVDVAIIGGGPAGIGAALELQQYLTVALIEERGWLGGDMWLKGIKQEGFNKDSRKVVEELVGKLNENTKIYLETSALGVFDKGEYFLVPVVRGDKLIEILAKRVVLATGAIDSTMLFENNDMPGVFRRDFALEVMNVWEVAPGRKVAVTGSKADEVIQELERWGIDYVHIPNVKRVEGNEKVERVIDMNNHEYKVDALIFADGRRPDINPITQAGGKLRFRRGYYSPVLDEYHRIKDGIYVAGSAVSIKPHYANYLEGKLVGAYILKEFGYDAQPCIYEEKLREYEPESLSIPRIPLDKFNLEDVQICGCDVSLKKVDEVIRKGITDLQIIKRLTHLAMGFCQGRYCLFNGAVVVSQRTGKKLSEIDLPVARSPIKNVKMGILARR,soluble
18,MAHDVEVKNAVRGAYVFDRLSLEMAAEKAGVSFGTARRWKANAESNGDNWDKARDVHVMASGGIENIAQGLLTGFLIKYRKLMSELEENTEMATAAKVEALSALADSFAKMTASSKKLLPETSAMATAMRAIEMMANIVKSKKPHLLPDFLEMLDDLEVQFKKEFK,not soluble
19,MGSDKIHHHHHHMRILTFTGKGGVGKTSVSAATAVRLSEMGHRTLVLSTDPAHSLSDSFNIQLGAEPTKIKENLHAIEVNPYVDLKQNWHSVQKYYTRIFMAQGVSGVMADEMTILPGMEELFSLLRIKRYKSAGLYDALVLDTAPTGETLRLLSLPDTLSWGMKAVKNVNKYIVRPLSKPLSKMSDKIAYYIPPEDAIESVDQVFDELEDIREILTDNVKSTVRLVMNAEKMSIKETMRALTYLNLYGFKVDMVLVNKLLDAQENSGYLEKWKGIQQKYLGEIEEGFSPLPVKKLKMYDQEIVGVKSLEVFAHDIYGDTDPSGMMYDEPPIKFVRQGDVYEVQLKLMFANPVDIDVWVTGDELFVQIGNQRKIITLPVSLTGLEPGDAVFKDKWLHIPFDLEKQGQHHRTREYNKA,not soluble
20,MGSDKIHHHHHHMNPQTRKRQNLTAVYAALLQLMSQKPLSRISITELCQHAQVSRTYFYRNFANFDQIILAYQKQTILQYLRQLPRQSKVKLQVLMTQYFTLMQQMAATNALLIKNEKTQIFIQSFEAVFALLIKQDRIIGSSNTALRQPYYTAYFSGAVINMLVHWQQNGMVETPAYLAQQVTRFTLRDNESRS,not soluble
